Results from patent US20150024955.

B1: FLAG-tagged human HDAC7, phosphorylated (from DO11.10-HDAC7-Flag cells treated with PMA or anti-CD3) (protein)
chain: MDLRVGQRPPVEPPPEPTLLALQRPQRLHHHLFLAGLQQQRSVEPMRLSMDTPMPELQVGPQEQELRQLLHKDKSKRSAVASSVVKQKLAEVILKKQQAALERTVHPNSPGIPYRTLEPLETEGATRSMLSSFLPPVPSLPSDPPEHFPLRKTVSEPNLKLRYKPKKSLERRKNPLLRKESAPPSLRRRPAETLGDSSPSSSSTPASGCSSPNDSEHGPNPILGSEADSDRRTHPTLGPRGPILGSPHTPLFLPHGLEPEAGGTLPSRLQPILLLDPSGSHAPLLTVPGLGPLPFHFAQSLMTTERLSGSGLHWPLSRTRSEPLPPSATAPPPPGPMQPRLEQLKTHVQVIKRSAKPSEKPRLRQIPSAEDLETDGGGPGQVVDDGLEHRELGHGQPEARGPAPLQQHPQVLLWEQQRLAGRLPRGSTGDTVLLPLAQGGHRPLSRAQSSPAAPASLSAPEPASQARVLSSSETPARTLPFTTGLIYDSVMLKHQCSCGDNSRHPEHAGRIQSIWSRLQERGLRSQCECLRGRKASLEELQSVHSERHVLLYGTNPLSRLKLDNGKLAGLLAQRMFVMLPCGGVGVDTDTIWNELHSSNAARWAAGSVTDLAFKVASRELKNGFAVVRPPGHHADHSTAMGFCFFNSVAIACRQLQQQSKASKILIVDWDVHHGNGTQQTFYQDPSVLYISLHRHDDGNFFPGSGAVDEVGAGSGEGFNVNVAWAGGLDPPMGDPEYLAAFRIVVMPIAREFSPDLVLVSAGFDAAEGHPAPLGGYHVSAKCFGYMTQQLMNLAGGAVVLALEGGHDLTAICDASEACVAALLGNRVDPLSEEGWKQKPNLNAIRSLEAVIRVHSKYWGCMQRLASCPDSWVPRVPGADKEEVEAVTALASLSVGILAEDRPSEQLVEEEEPMNL
B2: myosin phosphatase (complex of PP1β and MYPT1) (protein)
chain 1: ADGELNVDSLITRLLEVRGCRPGKIVQMTEAEVRGLCIKSREIFLSQPILLELEAPLKICGDIHGQYTDLLRLFEYGGFPPEANYLFLGDYVDRGKQSLETICLLLAYKIKYPENFFLLRGNHECASINRIYGFYDECKRRFNIKLWKTFTDCFNCLPIAAIVDEKIFCCHGGLSPDLQSMEQIRRIMRPTDVPDTGLLCDLLWSDPDKDVQGWGENDRGVSFTFGADVVSKFLNRHDLDLICRAHQVVEDGYEFFAKRQLVTLFSAPNYCGEFDNAGGMMSVDETLMCSFQILKPSEKKAKYQYGGLNSGRPVTPPRTANPPKKR
chain 2: MKMADAKQKRNEQLKRWIGSETDLEPPVVKRQKTKVKFDDGAVFLAACSSGDTDEVLKLLHRGADINYANVDGLTALHQACIDDNVDMVKFLVENGANINQPDNEGWIPLHAAASCGYLDIAEFLIGQGAHVGAVNSEGDTPLDIAEEEAMEELLQNEVNRQGVDIEAARKEEERVMLRDARQWLNSGHISDVRHAKSGGTALHVAAAKGYTEVLKLLIQAGYDVNIKDYDGWTPLHAAAHWGKEEACRILVDNLCDMETVNKVGQTAFDVADEDILGYLEELQKKQTLLHSEKRDKKSPLIESTANMENNQPQKAFKNKETLIIEPEKNASRIESLEHEKADEEEEGKKDESSCSSEEDEEDDSESEAETDKTKPMASVSNAHTSSTQAAPAAVTAPTLSSNQGTPTSPVKKFPISTTKISPKEEERKDESPASWRLGLRKTGSYGALAEISASKEAQKEKDTAGVMRSASSPRLSSSLDNKEKEKDNKGTRLAYVTPTIPRRLASTSDIEEKENRESSSLRTSSSYTRRKWEDDLKKNSSINEGSTYHRSCSFGRRQDDLISCSVPSTTSTPTVTSAAGLQRSLPSSTSTAAKTPPGSSSAGTQSSTSNRLWAEDSTEKEKDSAPTAVTIPVAPTVVNAAAPSTTTLTTTTAGTVSEVRERRRSYLTPVRDEESESQRKARSRQARQSRRSTQGVTLTDLQEAEKTIGRSRSTRTREQENEEKEKEEKEKQDKEKQEEKKESEASREDEYKQKYSRTYDETYTRYRPVSTSSSSAPSSSSLSTLGSTLYASSQLNRPNSLVGITSAYSRGLAKENEREGEKKEEEKEGEDKSQPKSIRERRRPREKRRSTGVSFWTQDSDENEQERQSDTEDGSSKRETQTDSVSRYDSSSTSSSDRYDSLLGRSASYSYLEDRKPYSSRLEKDDSTDFKKLYEQILAENEKLKAQLHDTNMELTDLKLQLEKATQRQERFADRSQLEMEKRERRALERRISEMEEELKMLPDLKADNQRLKDENGALIRVISKLSK

Columns and labels:
[1] = biological target: mixture of recombinant PP1 isoforms (α, β, and γ; Upstate)

Sequence of HDAC7-GFP fusion protein (Q8C2B3 whole entry, the tested form may be a part): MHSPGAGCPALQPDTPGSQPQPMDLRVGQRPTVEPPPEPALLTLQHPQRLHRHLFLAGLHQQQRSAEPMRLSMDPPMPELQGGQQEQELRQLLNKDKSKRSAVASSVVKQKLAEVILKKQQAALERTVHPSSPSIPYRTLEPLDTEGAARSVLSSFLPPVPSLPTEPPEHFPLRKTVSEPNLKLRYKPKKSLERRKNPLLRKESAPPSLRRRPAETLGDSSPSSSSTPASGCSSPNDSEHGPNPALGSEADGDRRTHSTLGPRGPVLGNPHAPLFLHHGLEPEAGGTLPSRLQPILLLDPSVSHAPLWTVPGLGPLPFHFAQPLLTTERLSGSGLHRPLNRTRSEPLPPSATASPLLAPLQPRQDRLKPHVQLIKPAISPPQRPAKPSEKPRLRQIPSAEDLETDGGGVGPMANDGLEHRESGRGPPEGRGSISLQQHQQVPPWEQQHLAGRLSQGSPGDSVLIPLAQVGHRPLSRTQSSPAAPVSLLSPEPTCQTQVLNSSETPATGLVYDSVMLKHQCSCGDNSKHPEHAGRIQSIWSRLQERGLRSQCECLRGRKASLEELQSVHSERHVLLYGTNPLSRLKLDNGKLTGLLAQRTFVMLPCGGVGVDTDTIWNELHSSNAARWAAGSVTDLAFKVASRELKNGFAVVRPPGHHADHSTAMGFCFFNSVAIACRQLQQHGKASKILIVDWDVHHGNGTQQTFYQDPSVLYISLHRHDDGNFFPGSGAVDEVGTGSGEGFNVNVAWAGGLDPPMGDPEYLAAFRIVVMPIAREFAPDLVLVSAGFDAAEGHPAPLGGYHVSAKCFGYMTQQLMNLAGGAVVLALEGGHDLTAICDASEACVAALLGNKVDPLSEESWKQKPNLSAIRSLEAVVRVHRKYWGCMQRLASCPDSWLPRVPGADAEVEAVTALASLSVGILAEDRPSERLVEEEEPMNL

Protein | in vitro dephosphorylation assay (30 minutes at 30° C.), Western blot with phospho HDAC7 antibodies [1] | nuclear exclusion of HDAC7-GFP after siRNA knockdown of myosin phosphatase subunits (immunofluorescence microscopy) (HDAC7-GFP fusion protein)
B1 | recombinant PP1 treatment totally abolished the reactivity to the different phospho HDAC7 antibodies | –
B2 | – | HDAC7 nuclear re-entry was significantly delayed at later time points
